The numbers were not newly measured in publication PMC10466379, which cites them from elsewhere.

Some targets named below: Lys39 (UniProt position 39, EFPGGKIEMGE); His137 (UniProt position 164, CGIIAHTKENQ); His150 (UniProt position 177, LKLCSH-----); His35 (UniProt position 62, AESNSHHAPLS); His36 (UniProt position 63, ESNSHHAPLSD); His50 (UniProt position 77, GSSYPHWFTNG); Glu96 (UniProt position 123, DHYLLEFPTFP); His82 (UniProt position 109, DRPPKHSKDGN); His104 (UniProt position 131, TFPDGHDYKFD); His72 (UniProt position 73, GINTAHKARQV); His60 (UniProt position 60, NETQTHQQVGN); His121 (UniProt position 203, KPNNTHEQHLR); His46 (UniProt position 128, TPETKHPKKGV); Glu92 (UniProt position 174, RGLAYEYADGK); Glu36 (UniProt position 118, PMTFRELLVDT); Glu103 (UniProt position 185, MVNEAEVRQGL); Glu66 (UniProt position 148, FTKKMEENAKK).

Holding throughout (experiment): not stated (values taken from the PKAD database; the article says PKAD values come mainly from NMR or IR titrations)
Holding throughout (conditions): not stated (the curated set excludes proteins with ligands, nucleic acids and structural metal ions)

Series [1] addresses His92 (UniProt position 119, NGKTDHYLLQF).
Series [2] addresses His92 (UniProt position 119, NGKTDHYLLEF).
Series [3] has as its target His124 (UniProt position 206, NTHEQHLRKSE).
Series [4] has as its target His8 (UniProt position 90, STKKLHKEPAT).
Series [5] deals with His8 (UniProt position 90, STKKLHAEPAT).
Series [6] deals with His124 (UniProt position 206, NTHEQHLRASE).
Series [7] has as its target His124 (UniProt position 206, NTHEQHLRKAE).

On to “MutT protein (Escherichia coli (inferred from PDB 1MUT; not stated in the article))”, for which the pKa with Lys39 is given as 8.4.
In the case of “alpha-sarcin E96Q (parent PDB 1DE3) (Aspergillus giganteus (inferred from PDB 1DE3; not stated in the article); E96Q)”, the pKa with His137 is reported as 5.9; with His150, 7.9; in the series with His35, 6.3; with His36, 7.3; in the series with His50, 6.4; in the series with His92 [1], 7.2.
Take “alpha-sarcin H50Q (parent PDB 1DE3) (Aspergillus giganteus (inferred from PDB 1DE3; not stated in the article); H50Q)”: the pKa in the series with Glu96 was 5; with His137, 6.1; with His150, 7.3; with His35, 6.2; with His82, 7.4; in the series with His92 [2], 7.3.
Take “alpha-sarcin H50Q/H137Q (parent PDB 1DE3) (Aspergillus giganteus (inferred from PDB 1DE3; not stated in the article); H50Q;H137Q)”: the pKa with Glu96 is reported as 5.4; with His104, 7.3; with His150 it was 7.6; with His35, 6.3; with His36, 7.3; with His82, 7. The pKa with His92 [2] is listed as 7.4.
“alpha-sarcin H137Q (parent PDB 1DE3) (Aspergillus giganteus (inferred from PDB 1DE3; not stated in the article); H137Q)”: the pKa with Glu96 was 5.7; with His104, 6.6; with His150 it was 7.7; with His35, 6.3; with His82 it was 7.4; with His92 [2], 7.1.
For “bovine heart phosphotyrosyl phosphatase (low molecular weight PTPase) (Bos taurus)”, the pKa with His72 is on record as 9.19.
On to “family 11 xylanase (PDB 1H4G) (Bacillus agaradhaerens (inferred from PDB 1H4G; not stated in the article))”, for which the pKa with His60 is on record as 4.01.
As to “staphylococcal nuclease D77A (parent PDB 1STN) (Staphylococcus aureus (inferred from PDB 1STN; not stated in the article); D77A)”, the pKa in the series with His121 is 5.89; in the series with His124 [3] it was 5.77; in the series with His46 it was 6.43; with His8 [4], 6.44.
Turning to “staphylococcal nuclease D77N (parent PDB 1STN) (Staphylococcus aureus (inferred from PDB 1STN; not stated in the article); D77N)”, the pKa with His121 is reported as 5.77; in the series with His124 [3] it was 5.81; with His46 it was 6.53; in the series with His8 [4] it was 6.29.
For “staphylococcal nuclease E73A (parent PDB 1STN) (Staphylococcus aureus (inferred from PDB 1STN; not stated in the article); E73A)”, the pKa with His121 is 5.24; in the series with His124 [3], 5.63; with His46, 6.51; with His8 [4] it was 6.47.
With “staphylococcal nuclease E101A (parent PDB 1STN) (Staphylococcus aureus (inferred from PDB 1STN; not stated in the article); E101A)”, the pKa is listed as 5.26 in the series with His121, 5.04 in the series with His124 [3], 6.4 in the series with His46 and 6.49 in the series with His8 [4].
Regarding “staphylococcal nuclease K9A (parent PDB 1STN) (Staphylococcus aureus (inferred from PDB 1STN; not stated in the article); K9A)”, the pKa in the series with His121 is given as 5.48; with His124 [3], 5.67; in the series with His46 it was 6.47; in the series with His8 [5] it was 6.73.
For the substance “staphylococcal nuclease K127A (parent PDB 1STN) (Staphylococcus aureus (inferred from PDB 1STN; not stated in the article); K127A)”, the pKa with His121 is listed as 5.3; with His124 [6], 5.99; with His46, 6.45; with His8 [4], 6.51.
In the case of “staphylococcal nuclease S128A (parent PDB 1STN) (Staphylococcus aureus (inferred from PDB 1STN; not stated in the article); S128A)”, the pKa in the series with His121 is 5.25; with His124 [7] it was 5.71; with His46, 6.49; in the series with His8 [4], 6.53.
On to “staphylococcal nuclease Y91A (parent PDB 1STN) (Staphylococcus aureus (inferred from PDB 1STN; not stated in the article); Y91A)”, for which the pKa in the series with His121 was 5.32; in the series with His124 [3] it was 5.82; in the series with His46, 6.52; with His8 [4], 6.42.
For “staphylococcal nuclease Y91F (parent PDB 1STN) (Staphylococcus aureus (inferred from PDB 1STN; not stated in the article); Y91F)”, the pKa with His121 is reported as 6.04; in the series with His124 [3] it was 5.65; in the series with His46 it was 6.39; with His8 [4], 6.36.
With “staphylococcal nuclease Y93A (parent PDB 1STN) (Staphylococcus aureus (inferred from PDB 1STN; not stated in the article); Y93A)”, the pKa with His121 is reported as 5.94; in the series with His124 [3], 5.68; with His46 it was 6.48; in the series with His8 [4], 6.45.
For the substance “staphylococcal nuclease Y93F (parent PDB 1STN) (Staphylococcus aureus (inferred from PDB 1STN; not stated in the article); Y93F)”, the pKa with His124 [3] is recorded as 5.52; with His46, 6.42; in the series with His8 [4] it was 6.46.
For “staphylococcal nuclease variant I92E (parent PDB 2LKV) (Staphylococcus aureus (inferred from PDB 2LKV; not stated in the article); I92E)”, in the series with Glu92, the pKa is recorded as 9.
As for “staphylococcal nuclease variant L36E (parent PDB 2LKV) (Staphylococcus aureus (inferred from PDB 2LKV; not stated in the article); L36E)”, the pKa in the series with Glu36 is on record as 8.7.
Regarding “staphylococcal nuclease variant L103E (parent PDB 2LKV) (Staphylococcus aureus (inferred from PDB 2LKV; not stated in the article); L103E)”, in the series with Glu103, the pKa is given as 8.9.
In the case of “staphylococcal nuclease variant V66E (parent PDB 2LKV) (Staphylococcus aureus (inferred from PDB 2LKV; not stated in the article); V66E)”, in the series with Glu66, the pKa is listed as 8.5.
